Positions count from the first letter of the chain named. Each block holds one binder with its values, some of them ahead of it.
Tests used:
[1] = biological target: T1, human IL-4 (recombinant E. coli-expressed) (human, UniProt P05112 25-153); assay: cell-based or functional assay
T1 sequence (looked up): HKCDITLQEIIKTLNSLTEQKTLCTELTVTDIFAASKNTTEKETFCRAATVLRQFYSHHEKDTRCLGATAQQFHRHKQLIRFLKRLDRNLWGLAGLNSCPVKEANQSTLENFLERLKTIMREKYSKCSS

[2] = biological target: T2, human IL-13 (recombinant E. coli-expressed) (human, UniProt P35225 35-146); assay: cell-based or functional assay
[3] = biological target: T2, human IL-13 (recombinant E. …); assay: Biacore T100 SPR, mAb (supernatant) captured on anti-human IgG, IL13 analyte, 1:1 fit
Source text: (§1) Table 1 details the overall affinities (equilibrium dissociation constant KD) for the selected constructs from the ProteOn screen and the T100 run

[4] = biological target: T2, human IL-13 (recombinant E. …); assay: ProteOn XPR36 SPR, mAb (supernatant) captured on anti-human IgG, IL13 analyte, 1:1 fit
Description: The initial screen of CDRH3 mutants was carried out on the ProteOn XPR36 (Biorad). […] 3M MgCl₂ was used to regenerate the capture surface, removing the bound CDRH3 mutant antibodies ready for another cycle of capture and analyte injection. The data was fitted to the 1:1 model using the software inherent to the machine.

[5] = biological target: T2, human IL-13 (recombinant E. …); assay: Biacore T100 SPR, purified mAb captured on anti-human IgG, IL13 analyte, 1:1 fit
Source text: as §1

[6] = biological target: T2, human IL-13 (recombinant E. …); assay: as above; remark: listed apart in the source
Source text: as §1

[7] = biological target: T2, human IL-13 (recombinant E. …); assay: Biacore T100 SPR, Protein A capture (CM5), human IL13 analyte, 1:1 fit
Description: Protein A was immobilised on a CM5 chip by primary amine coupling; this surface was used as a capture surface for the antibody molecules to be tested. […] All binding curves were double referenced with a 0 nM injection (i.e. buffer alone).
Regeneration of the Protein A surface was with 50 mM NaOH. The assay was run at 25° C. using HBS-EP as running buffer. The data was fitted to 1:1 model inherent to the Biacore T100 analysis software.

[8] = biological target: T1, human IL-4 (recombinant E. …); assay: Biacore T100 SPR, Protein A capture (CM5), 1:1 fit; paragraph 260 calls Table 20 IL13, its footnote and values point to IL4
Description: (§2) Protein A was immobilised on a CM5 chip by primary amine coupling; this surface was used as a capture surface for the antibody molecules to be tested. […] Regeneration the Protein A surface was with 50 mM NaOH. The assay was run at 25° C. using HBS-EP as running buffer. The data was fitted to 1:1 model inherent to the Biacore T100 analysis software.

[9] = biological target: T1, human IL-4 (recombinant E. …); assay: Biacore T100 SPR, Protein A capture (CM5), human IL4 analyte, 1:1 fit
Description: (§3) Protein A was immobilised on a CM5 chip by primary amine coupling; this surface was used as a capture surface for the antibody molecules to be tested.
(§4) All binding curves were double referenced with a 0 nM injection (i.e. buffer alone). Regeneration of the Protein A surface was with 50 mM NaOH. The assay was run at 25° C. using HBS-EP as running buffer. The data was fitted to 1:1 model inherent to the Biacore T100 analysis software.

[10] = biological target: T1, human IL-4 (recombinant E. …); assay: as above; remark: listed apart in the source
Description: Purified mAbs and mAbdAb constructs were tested in a BIAcore assay to determine whether the mutation of position 89 had any effect on the binding of the dAb to IL-4.
as §2, with “Regeneration of” for “Regeneration”, “the […]” for “the Protein”, “was achieved using” for “was with”

[11] = biological target: T1, human IL-4 (recombinant E. …); assay: direct binding ELISA, plate coated with 5 ug/ml human IL-4, anti-human kappa light chain-HRP detection, absorbance at 490 nm
Description: 96-well high binding plates were coated with 5 μg/ml human IL-4 (made at GSK) in NaHCO₃ and stored overnight at 4° C. The plates were washed twice with Tris-Buffered Saline with 0.05% of Tween-20 (TBST). 100 μL of blocking solution (1% BSA in TBST buffer) was added in each well and the plates were incubated for at least one hour at room temperature. The mAbdAbs were successively diluted across the plates in blocking solution. After one hour incubation, the plates were washed three times. Goat anti-human kappa light chain specific peroxidase conjugated antibody (Sigma A7164) was diluted in blocking solution to 1 μg/mL and 50 μL was added to each well. The plates were incubated for one hour. After another three washing steps, 50 μl of OPD (o-phenylenediamine dihydrochloride) SigmaFast substrate solution was added to each well and the reaction was stopped after about 5 minutes by addition of 25 μL of 3M sulphuric acid. Absorbance was read at 490 nm using the VersaMax Tunable Microplate Reader (Molecular Devices) using a basic endpoint protocol.

[12] = biological target: T2, human IL-13 (recombinant E. …); assay: cell-based or functional assay; remark: listed apart in the source
[13] = biological target: T2, human IL-13 (recombinant E. …); assay: Biacore T100 SPR, Protein A capture (CM5), 1:1 fit; paragraph 260 calls Table 21 IL4, the values match IL13 (tables seem swapped)
Description: as §2

[14] = biological target: T1, human IL-4 (recombinant E. …); assay: Biacore T100 SPR, Protein A capture (C1 chip), human IL4 analyte, 1:1 fit; on-rate beyond the sensitivity of Biacore (footnote)
Description: as §2, with “Cl” for “CM5”, “100” for “50”, “Phosphoric acid.” for “NaOH.”

[15] = biological target: T1, human IL-4 (recombinant E. …); assay: Biacore T100 SPR, Protein A capture (CM5), human IL4 analyte
Description: as §3, §4

[16] = biological target: T1, human IL-4 (recombinant E. …); assay: Biacore T100 SPR, Protein A capture (CM5), human IL4 analyte, 1:1 fit; footnote: impossible on-rate
Description: as §3, §4

[17] = biological target: T1, human IL-4 (recombinant E. …); assay: Biacore T100 SPR, Protein A capture (CM5), human IL4 analyte, 1:1 fit; footnote: rates not measurable
Description: as §3, §4

T2 sequence (P35225 other isoform, or with tags, fused parts or gaps limits assumed): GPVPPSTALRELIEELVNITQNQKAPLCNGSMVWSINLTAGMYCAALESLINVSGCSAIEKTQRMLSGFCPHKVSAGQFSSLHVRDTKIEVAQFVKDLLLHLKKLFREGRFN

B2: A1Y100B AlaL1 (antibody, human IgG1, kappa, V domains shown)
VH: QVQLVQSGAEVKKPGSSVKVSCKASGFYIKDTYMHWVRQAPGQGLEWMGTIDPANGNTKYVPKFQGRVTITADESTSTAYMELSSLRSEDTAVYYCARSIYDDYHADDYYAMDYWGQGTLVTVSS
VL: DIVMTQSPLSLPVTPGEPASISCRSSQNIVHINGNTYLEWYLQKPGQSPRLLIYKISDRFSGVPDRFSGSGSGTDFTLKISRVEADDVGIYYCFQGSHVPWTFGQGTKLEIKR
notes: CDRH3 variant of A1L1
ND50 (nM), TF-1 cell proliferation bioassay [2]: 0.92 nM
Kd [3]: 0.083 nM
Kd [4]: 0.075 nM
Kd [5]: 0.031 nM
koff [5]: 3e-05 s⁻¹
kon [5]: 960000 M⁻¹ s⁻¹
Kd [6]: 0.032 nM
koff [6]: 2.58e-05 s⁻¹
kon [6]: 810000 M⁻¹ s⁻¹

B3: A1Y100B TrpL1 (antibody, human IgG1, kappa, V domains shown)
VH: B2 VH with A106W
VL: B2 VL
notes: CDRH3 variant of A1L1
ND50 (nM), TF-1 cell proliferation bioassay [2]: 1.25 nM
Kd [3]: 0.095 nM
Kd [4]: 0.068 nM
Kd [5]: 0.063 nM
koff [5]: 0.000163 s⁻¹
kon [5]: 2.57e+06 M⁻¹ s⁻¹
Kd [6]: 0.053 nM
koff [6]: 0.000125 s⁻¹
kon [6]: 2.38e+06 M⁻¹ s⁻¹

B4: A1Y100B IleL1 (antibody, human IgG1, kappa, V domains shown)
VH: B2 VH with A106I
VL: B2 VL
notes: CDRH3 variant of A1L1
ND50 (nM), TF-1 cell proliferation bioassay [2]: 1.1 nM
Kd [3]: 0.073 nM
Kd [4]: 0.075 nM
Kd [5]: 0.049 nM
koff [5]: 5.58e-05 s⁻¹
kon [5]: 1.15e+06 M⁻¹ s⁻¹
Kd [6]: 0.043 nM
koff [6]: 4.21e-05 s⁻¹
kon [6]: 989000 M⁻¹ s⁻¹

B5: BPC1085 (bispecific antibody, human IgG1, kappa)
heavy: not shown
light: DIVMTQSPLSLPVTPGEPASISCRSSQNIVHINGNTYLEWYLQKPGQSPRLLIYKISDRFSGVPDRFSGSGSGTDFTLKISRVEADDVGIYYCFQGSHVPWTFGQGTKLEIKRTVAAPSVFIFPPSDEQLKSGTASVVCLLNNFYPREAKVQWKVDNALQSGNSQESVTEQDSKDSTYSLSSTLTLSKADYEKHKVYACEVTHQGLSSPVTKSFNRGEC
notes: also called 829H-GS(TVAAPSGS)2-154 (89Q)
Kd [7]: 0.073 nM
Kd [8]: 0.048 nM
Kd [9]: 0.078 nM
Kd [10]: 0.052 nM
Mean ND50 value (nM), TF-1 cell proliferation bioassay [1]: 9.21 nM
EC50 (read off the curve) [11]: ~4 nM

B6: BPC1625 (bispecific antibody, human IgG1, kappa)
heavy: not shown
light: B5 light
ND50 human IL-13, TF-1 cell proliferation bioassay [12]: 0.542 nM

B9: BPC1086 (bispecific antibody, human IgG1, kappa)
heavy: not shown
light: B5 light
notes: also called 829H-GS(TVAAPSGS)3-154 (89Q)
Kd [13]: 0.051 nM
koff [13]: 6.57e-05 s⁻¹
kon [13]: 1.28e+06 M⁻¹ s⁻¹
EC50 (read off the curve) [11]: ~4 nM

B10: BPC1624 (bispecific antibody, human IgG1, kappa)
heavy: not shown
light: B5 light
ND50 human IL-13, TF-1 cell proliferation bioassay [12]: 0.553 nM

B15: BPC1115 (bispecific antibody, human IgG1, kappa)
heavy: not shown
light: B5 light
notes: mAbdAb; dAb Kabat 89 Y; also called 829H-(TVAAPS)2GS-154 (89Y)
Kd [16]: 2.29 nM
koff [16]: 0.329 s⁻¹
kon [16]: 1.44e+08 M⁻¹ s⁻¹

B16: BPC1112 (bispecific antibody, human IgG1, kappa)
heavy: not shown
light: B5 light
notes: mAbdAb; dAb Kabat 89 K; also called 829H-(TVAAPS)2GS-154 (89K)
Kd [17]: 29 nM
koff [17]: 3.31 s⁻¹

The next lines start with the values.

Mean ND50 value (nM), TF-1 cell proliferation bioassay [1]: 0.98 nM
B1: DOM9-155-154 (other)
VL: DIQMTQSPSSLSASVGDRVTITCRASRPISDWLHWYQQKPGKAPKLLIAWASSLQGGVPSRFSGSGSGTDFTLTISSLQPEDFATYYCLQEGWGPPTFGQGTKVEIKR

ND50 human IL-13, TF-1 cell proliferation bioassay [12]: 0.681 nM
B7: BPC1626 (bispecific antibody, human IgG1, kappa)
heavy: not shown
light: B5 light

ND50 human IL-13, TF-1 cell proliferation bioassay [12]: 0.615 nM
B8: BPC1627 (bispecific antibody, human IgG1, kappa)
heavy: not shown
light: B5 light

Kd [14]: 0.01 nM
B11: BPC2230 (bispecific antibody, human IgG1, kappa)
heavy: not shown
light: B5 light
notes: mAbdAb with the original CDRH3 and the unmutated DOM9-155-154 dAb

Kd [14]: 0.006 nM
Kd [8]: 0.002 nM
EC50 (read off the curve) [11]: ~3 nM
B12: BPC2231 (bispecific antibody, human IgG1, kappa)
heavy: not shown
light: B5 light
notes: as for B11

binding result [15]: no binding (tested: IL4 up to 64 nM)
B13: BPC1119 (bispecific antibody, human IgG1, kappa)
heavy: not shown
light: B5 light
notes: mAbdAb; dAb Kabat 89 P; also called 829H-(TVAAPS)2GS-154 (89P)

binding result [15]: no binding (tested: IL4 up to 64 nM)
B14: BPC1113 (bispecific antibody, human IgG1, kappa)
heavy: not shown
light: B5 light
notes: mAbdAb; dAb Kabat 89 D; also called 829H-(TVAAPS)2GS-154 (89D)

Reference: patent publication US20120082682A1 (GlaxoSmithKline, published 2012)
